Earlier results in paper PMC10860761.

Key:
[1] = biological target: actin monomer (ATP) (UniProt P60010)
[2] = biological target: actin monomer (ADP) (UniProt P60010)

Chain of Srv2/CAP CARP (P17555 369-526): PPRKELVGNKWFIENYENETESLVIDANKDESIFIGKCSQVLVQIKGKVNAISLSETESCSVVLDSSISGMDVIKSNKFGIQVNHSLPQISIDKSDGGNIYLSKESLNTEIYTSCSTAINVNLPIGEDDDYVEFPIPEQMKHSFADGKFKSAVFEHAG
Chain of Srv2/CAP WH2 (P17555 287-336): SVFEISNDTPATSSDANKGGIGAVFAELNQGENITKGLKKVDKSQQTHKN

Substance	Kd [1] [µM]	Kd [2] [µM]
Srv2/CAP WH2 (from UniProt P17555)	1	
Srv2/CAP CARP (from UniProt P17555)		1.5
